# Source: the nanobody polyreactivity screen of Harvey et al. (2022)
# Test: yeast display, Sf9 membrane polyspecificity reagent, FACS + sequencing; frameworks hold sequencing errors
# Summary of the method: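 A nanobody's polyreactivity label depends on the gate it was sorted from. Yeast display cells were stained with 10% biotinylated, detergent-solubilized Sf9 membrane reagent for 1 hour at 4 °C, enriched on streptavidin microbeads and sorted by FACS. The low and high (top ~1%) gates were set on anti-HA fluorescence for expression and streptavidin fluorescence for reagent binding.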
row,Sequence,polyreactivity (PSR sort gate)
1,QVQLVESGGGIVQAGGILRLSCAASGRISVFNDMGWYRQAPGKERELVAAITSGGSTKYADSVKGRFTISRDNAKNTVYLQMNSLKPEDTAVYYCASLYQFHGKIWDGDYWGQGTQVNVSS,low polyreactivity
2,QVQLVESGGGIVQAGGILRLSCAASGRNLHGYTMGWYRQAPGKERELVATISSIGGSTYYADSVKGRFTISRDNAKNTVYLQMNSLKPEDTAVYYCAATRGRRYQSYYWGQGTQVTVSS,low polyreactivity
3,QVQLVESGGGIVQAGGILRLSSAASGRTFYSYTMGWSRQEPGKERELVAAINRGGSTYYADSVKGRFTISRDKAKNTVYLQMNSLKPEDTEVYYCAVGYAHSSNRRYYYKKTHGYWGQGTQVTVSS,low polyreactivity
4,QVQLVESGGGIVQAGGRLRLSCAASGFPSTLMLWDGIDRRLGKKGSWLPIISYNGGSTYYADSVKGRFTISRDNANNTVYLQMNSLKPVDTAVYYCYTAVGEYESDYWGQGTQVTVSS,low polyreactivity
5,QVQLVESGGGIVQAGGRLRLSCAASGSIFYYYAKGWYRQAPGTERELVASINSGVSTYYADSVKGRFTNSRDNAKNTVYLQMNSLKPVDTAVYYCAAPGHNLYGSWFSWTPDTYDYWGQGNQVTVSS,low polyreactivity
6,QVQLVESGGGIVQAGGSIRLSCAASGYTFAKYAMGWYRQAPGKERELVAAITFSDTSTYYADSVKGRFTISRDNAKNTVYLQMNSLKPEDTAVYYCAVVGPYYSRFGGRYYYWGQGTQVTVSS,low polyreactivity
7,QVQLVESGGGIVQAGGSLRLISAASGRTYKSYTIGWYRQAPGKEREFVAAISSRGGNTYYADSVKGRFTISRDNAKNTVYLQMNSLKPEDTAVYYCAARYGYSYDRRDYWGQGTQVTVSS,high polyreactivity
8,QVQLVESGGGIVQAGGSLRLRCAASGFTFSRNAMVWYRQAPGKERELVAAITWSGGRTYYADSVKGRFTISRDNAKNTVYLQMNSLKPEDTAVYYCAARKYHLRSAYDYWGQGTKVTVSS,low polyreactivity
9,QVQLVESGGGIVQAGGSLRLSCAASGFIFGSYAMGWYRQAPGKERELVAAINSVDRTYYADSVKGRFTISRDNAKNTVYLQMNSLKPEDTAVYYCAATIAPTPGYIIYDYWGQGTQVTVSS,high polyreactivity
10,QVQLVESGGGIVQAGGSLRLSCAASGFIFVANAMGRYRQAPGKERQLVAAISGSGGSTFYADSVKGRFTISRDNAKNTVNLQMNSLKPEDTAGYYCNADAYDYSGYFEYDCWGQGTQETVSS,high polyreactivity
11,QVQLVESGGGIVQAGGSLRLSCAASGFIFYRYAMGWYRQAPGKERELVAAITGSGARTYYADSVKGRFTISRDNAKNTVYLQMNSLKPEDTAVYYCNARGYRGYDYWGQGTQVTVSS,high polyreactivity
12,QVQLVESGGGIVQAGGSLRLSCAASGFIFYWNAMGRYRQAPGKERELVAGITSGGDTNYADSVKGRFTISRDNAKITVYLQMNSLKPEDTAVYYCAAEGFRGYGYWGQGTQVTVSS,low polyreactivity
13,QVQLVESGGGIVQAGGSLRLSCAASGFIISYNAMVWYRQAPGKERELVAAISSRGGSTYYADSVKGRFTISRDNAKNTVYLQMNSLKPEDTAVYYCAVASRRVYTAPYDYWGQGTQVSVSS,high polyreactivity
14,QVQLVESGGGIVQAGGSLRLSCAASGFISYRNAMGWDRMAPGKERELVASITSSGGRTYYADSVKGRFTISRDNAKNTVYLQMNSLKPEDTAVYDWAADNWYKKQKRPSAYDYWGQGTQVSVSS,high polyreactivity
15,QVQLVESGGGIVQAGGSLRLSCAASGFNFLRYAMGWYRQAPGKERELVAAISTSGGSTSYADSVKGRFTISRDNAKNTVYLQMNSLNPEDTAVYYCNAVLYKVSISEYDYWGQGTQVTVSS,high polyreactivity
16,QVQLVESGGGIVQAGGSLRLSCAASGFTFEKNAMGWYRQAPGKERELVAAISRGGSTYADSVKGRFRISRDNAKNTVYLQMNSLKPEDTAVYYCAADTVYIFSSAINGEFGYWGQGTQVTVSS,low polyreactivity
17,QVQLVESGGGIVQAGGSLRLSCAASGFTFEYYAMGWYRQAPGKERELVADITSGGTYYADSVKGRFTISRDNAKNTVYLQMNSLKPEDTAVYYCAADFGQPYTYYAKENYWGQGTQVTVSS,low polyreactivity
18,QVQLVESGGGIVQAGGSLRLSCAASGFTFTHYAMGWYRQAPGKERELVAAISPSGGSTYYADSVKGRFTISRDNAKNTVYLQMNSLKTEDTAVFYFAARRDGWVQWGYYYWGQGTEVTVSS,low polyreactivity
19,QVQLVESGGGIVQAGGSLRLSCAASGFTISRYAMGWDRPAPGKERELVAAITGSGGSTYYADSVKGRFTISRDIAKNTVYLQMNSLKPEDTAVYYCNTMKHYKREYDYWGQGSQVTVSS,high polyreactivity
20,QVQLVESGGGIVQAGGSLRLSCAASGGTFPWYTMVWYRQAPGKERELVATIRGRDGSTFYADSVKGRFTISRDNAKNTVYLQMNSLIPEVTAVYYCAAVGRRKDLRWGVYYRFDYWGQGTQVTVSS,low polyreactivity
21,QVQLVESGGGIVQAGGSLRLSCAASGIIFPLYAMGWYRPAPGKERELVAAIRSTGGSTYYADSVKGRFTISRDNANNTVYLQMNSLKPEDTAVYYCNARQNRRQGNVGYWGQGTQVTVSS,low polyreactivity
22,QVQLVESGGGIVQAGGSLRLSCAASGIIFPYYAMGWYRQAPGKVRELVAAISSSGGSTHYADSVKGRFTISRDTAKNTVYLQMHSLKPEDTAVYYCAARDINRYPKAQPTDRSIYYWRQGTQVTVSS,high polyreactivity

row,Sequence,polyreactivity (PSR sort gate)
1,QVQLVESGGGIVQAGGSLRLSCAASGIIIFYKAMGWDRQAPGKERELVATISRRGGSTYYADSVKGRFTISRDNAKNTVYLQMNSLKPEDTAVYYCARDVGAGSKISRLSSYNYWGQGTQVTVSS,low polyreactivity
2,QVQLVESGGGIVQAGGSLRLSCAASGITFDGYAMGWYRQAPGKERELVAGISWSGARTYYADSVKGRFTISRDNAKNTVYLLMNSLKPEDTALYYCNKVSLRNHGGYDYWGQGNQVTVSS,high polyreactivity
3,QVQLVESGGGIVQAGGSLRLSCAASGITFFYYAMGWYRQAPGKERELVASISSGGSTYYADSVKGRFTISRDNAKNTVYLQMNSLKPEDTAVYYCAAPTGWYPAYGEYEYWGQGTQVTVSS,low polyreactivity
4,QVQLVESGGGIVQAGGSLRLSCAASGITFPANAMGWYRQAPGKERELVADISESDGSTYYADSVKGRFTISRDNAKNTVYLQMNSLKPEDTAVYYCAADGTSGTRSDYWGQGTQVTVSS,low polyreactivity
5,QVQLVESGGGIVQAGGSLRLSCAASGITFPFYTMGWYRQAPGKERELVADISSRGTSTYYADSVKGRFTISRDNAKYTVYLQMNSLNPEDTAVYYCKARATPQRAYDSWGQGTLVTVSS,high polyreactivity
6,QVQLVESGGGIVQAGGSLRLSCAASGLTFPQYAMGWYTQAPGKERELVAAISWNGGITYYADSVKGRFTISRDYAKNTVYLQMNSLKPEDTAVYYCNDDGGYGDYYYWGQGTQVTVSS,low polyreactivity
7,QVQLVESGGGIVQAGGSLRLSCAASGLTFRKYAMGWYRQAPGKERELVAAIRFRGGSTYYADSVKGRFTISRDNAKNTVYLQMNSLKPEDTAVYYCNTAPVGLLYGRYDYWGEGTQVTVSS,high polyreactivity
8,QVQLVESGGGIVQAGGSLRLSCAASGRIFAWNAMGWYRQAPGKERELVAYADSVKGRFTISRDNAKNTVYLQMHSLNPEDSAVYYCAKVVTPYVPGDSYWYDYWGQGTQVTVSS,low polyreactivity
9,QVQLVESGGGIVQAGGSLRLSCAASGRIFDEYAMGWYRLAPGKERELVAAITYSAGSTYYADSVKGRFTISRDNAKNTVYLQMNSLKPEDTAVYYCAADRYYWWWYTYNYWGQGTQVTVSS,low polyreactivity
10,QVQLVESGGGIVQAGGSLRLSCAASGRIFLTNAMGWYRQAPGKERELVAAITSGGSTYYADSVKGRFTISRDNAKNTVYLQMNSLKPEDTAVFYCNADTDRYWPYEYDYWGQGTQVTVSS,low polyreactivity
11,QVQLVESGGGIVQAGGSLRLSCAASGRIFLTNAMGWYRQAPGKERELVADISRGGSTYPDSVKGRFTISRDNAKNTVYLQMNSLKPEDTAVYYCAADEYSPGDSRTRYDYWGQGTQVTVSS,low polyreactivity
12,QVQLVESGGGIVQAGGSLRLSCAASGRIFRRYAMVWSRQAPGKQRELVAAISSGGGSTYYADSVKGRFTISRDNAKNTVYLQMNSLKPEDTAVFYCDAASSPRYDYWGQGTQVTVSS,high polyreactivity
13,QVQLVESGGGIVQAGGSLRLSCAASGRIFVDYDMGWYRQATGKERELVATISSGGSTNYADSVKGRFTISRDNAKNTVYLQMNSLKPEDSAVYHCNKDYHVRYYYWGQGTQVTVSS,low polyreactivity
14,QVQLVESGGGIVQAGGSLRLSCAASGRIFYDHAMGWYRQAPGKERELVAAITSVRSTNYADSVKGRFTISRDNAKNTVNLQMNSLKPEDTAVYYCARASAWYGTLVGKYTKYDYWGQATQVTVSS,low polyreactivity
15,QVQLVESGGGIVQAGGSLRLSCAASGRILSSYAMGWYRQAPGKERELVARISYSGGRTYYADSVKGRFTISRDNAKNTVYLQMNSQKPEDTAVYYCAAVSRVHFSYIYDYWGQGTQVTVSS,high polyreactivity
16,QVQLVESGGGIVQAGGSLRLSCAASGRSFDPYAMGWYRQAPGKERELVAAISRSGGSTYYADSVKGRFTISRDNAKNTVYLQMNSLKPEDTAFYYCAADDSRYYYEYDYWGQGTQVTVSS,high polyreactivity
17,QVQLVESGGGIVQAGGSLRLSCAASGRTFAYNVMGWYRHAPGKERELVAGISFGAGSTYYADSVKGRFTISRDNAKNTVYLQMNSLKPEDTAVYYCATRRRGTRYPRGYDYWGQGTQVTVSS,high polyreactivity
18,QVQLVESGGGIVQAGGSLRLSCAASGRTFAYYTMGWYRQAPGKERELVARISNRGTNTYYADSVKGRFTISRDNAKNTVYLQMNSLKPEDTAVYYCAKYYYTSIVGYDSWGQGTQVTVSS,low polyreactivity
19,QVQLVESGGGIVQAGGSLRLSCAASGRTFIRYTRGWYRQAPGKERELVGSIRYSGASTSYADSVKGRFTISRDNAKNTVYLQMNSLKPEDTAVYYCAARFGRYSHRYYYWGQGTQVTVSS,high polyreactivity
20,QVQLVESGGGIVQAGGSLRLSCAASGRTFLGYAMGWYRQAPGKERELVAAISYSGSSTYYADSVKGRFTISRDNAKNTVYLQMNSLKPEDTAVYYCAAQFYFLFDYWGQGTQVTVSS,low polyreactivity
21,QVQLVESGGGIVQAGGSLRLSCAASGRTFLQNAMGWYRQAPGKERELVATINYSGSSTYYADSVKGRFTISRDNAKKTVYLQMNSLKPEDTAVYYCNRDVPYRLVYYANYYRGQGTQVTVSS,low polyreactivity
